According to patent US20060204492A1 (published 2006):

What was measured:
[1] = target: T1, integrin αvβ3, purified from human placenta (human, UniProt P06756 31-1048; P05106 27-788); experiment: SPR (BIAcore), purified Fab over immobilized αvβ3
T1 construct: mature; Native heterodimer, immobilized on ELISA plates or on the BIAcore chip; biotinylated in capture lift and capture ELISA screens; also called αvβ3 receptor; vitronectin receptor
Protocol: The affinities of select variants were further characterized by utilizing surface plasmon resonance (BIAcore) to measure the association and dissociation rates of purified Fab with immobilized αᵥβ₃. […] To obtain association rate constants (kₒₙ), the binding rate at five different Fab concentrations, ranging from 5-40 μg/ml in 50 mM Tris-HCl, pH 7.4, 100 mM NaCl, 2 mM CaCl₂, and 1 mM MgCl₂, was determined at a flow rate of 10 μl/min. Dissociation rate constants (koff) were the average of five measurements obtained by analyzing the dissociation phase at an increased flow rate (40 μl/min). Sensorgrams were analyzed with the BIAevaluation 2.1 program (Pharmacia). Residual Fab was removed after each measurement with 10 mM HCl, 2 mM CaCl₂ and 1 mM MgCl₂.

[2] = target: T1, integrin αvβ3, purified from human …; experiment: ELISA titration of Fab on immobilized αvβ3
Protocol: Just prior to use, the plates were washed two times and were then incubated 1 h at 25° C. with various dilutions of Fab. […] All dilutions and washes were in 50 mM Tris-HCl, pH 7.4, 100 mM NaCl, 2 mM CaCl₂, and 1 mM MgCl₂.

[3] = target: T1, integrin αvβ3, purified from human …; experiment: SPR (BIAcore), purified Fab over immobilized αvβ3; remark: listed apart in the source

T1 sequence (P06756 31-1048, form in doubt, chain 1 of 2): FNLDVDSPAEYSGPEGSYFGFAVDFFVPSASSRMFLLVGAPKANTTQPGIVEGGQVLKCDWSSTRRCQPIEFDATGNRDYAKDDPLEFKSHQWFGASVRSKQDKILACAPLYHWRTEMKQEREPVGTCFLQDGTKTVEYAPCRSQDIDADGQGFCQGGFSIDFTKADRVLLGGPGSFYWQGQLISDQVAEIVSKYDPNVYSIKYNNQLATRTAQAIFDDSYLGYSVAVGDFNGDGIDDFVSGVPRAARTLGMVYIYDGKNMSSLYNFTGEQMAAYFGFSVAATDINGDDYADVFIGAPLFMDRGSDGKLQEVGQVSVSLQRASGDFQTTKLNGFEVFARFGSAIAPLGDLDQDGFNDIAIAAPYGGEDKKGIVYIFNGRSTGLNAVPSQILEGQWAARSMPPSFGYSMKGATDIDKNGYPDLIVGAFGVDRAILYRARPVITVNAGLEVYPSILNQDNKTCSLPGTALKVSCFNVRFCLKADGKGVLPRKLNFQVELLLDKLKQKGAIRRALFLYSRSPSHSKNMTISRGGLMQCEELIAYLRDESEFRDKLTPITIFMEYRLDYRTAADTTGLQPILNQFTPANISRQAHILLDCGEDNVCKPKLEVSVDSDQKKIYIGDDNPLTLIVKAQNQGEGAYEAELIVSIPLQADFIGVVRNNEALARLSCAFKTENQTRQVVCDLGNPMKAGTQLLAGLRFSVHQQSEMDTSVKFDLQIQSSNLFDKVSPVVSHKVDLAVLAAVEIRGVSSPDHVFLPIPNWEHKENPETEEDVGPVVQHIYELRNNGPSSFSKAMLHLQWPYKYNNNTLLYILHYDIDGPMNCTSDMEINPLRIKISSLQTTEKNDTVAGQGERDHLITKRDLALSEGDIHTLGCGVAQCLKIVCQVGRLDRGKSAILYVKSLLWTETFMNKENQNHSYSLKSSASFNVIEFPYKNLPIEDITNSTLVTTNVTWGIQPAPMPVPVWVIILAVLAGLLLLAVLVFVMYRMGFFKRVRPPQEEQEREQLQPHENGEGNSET
T1 sequence (P05106 27-788, form in doubt, chain 2 of 2): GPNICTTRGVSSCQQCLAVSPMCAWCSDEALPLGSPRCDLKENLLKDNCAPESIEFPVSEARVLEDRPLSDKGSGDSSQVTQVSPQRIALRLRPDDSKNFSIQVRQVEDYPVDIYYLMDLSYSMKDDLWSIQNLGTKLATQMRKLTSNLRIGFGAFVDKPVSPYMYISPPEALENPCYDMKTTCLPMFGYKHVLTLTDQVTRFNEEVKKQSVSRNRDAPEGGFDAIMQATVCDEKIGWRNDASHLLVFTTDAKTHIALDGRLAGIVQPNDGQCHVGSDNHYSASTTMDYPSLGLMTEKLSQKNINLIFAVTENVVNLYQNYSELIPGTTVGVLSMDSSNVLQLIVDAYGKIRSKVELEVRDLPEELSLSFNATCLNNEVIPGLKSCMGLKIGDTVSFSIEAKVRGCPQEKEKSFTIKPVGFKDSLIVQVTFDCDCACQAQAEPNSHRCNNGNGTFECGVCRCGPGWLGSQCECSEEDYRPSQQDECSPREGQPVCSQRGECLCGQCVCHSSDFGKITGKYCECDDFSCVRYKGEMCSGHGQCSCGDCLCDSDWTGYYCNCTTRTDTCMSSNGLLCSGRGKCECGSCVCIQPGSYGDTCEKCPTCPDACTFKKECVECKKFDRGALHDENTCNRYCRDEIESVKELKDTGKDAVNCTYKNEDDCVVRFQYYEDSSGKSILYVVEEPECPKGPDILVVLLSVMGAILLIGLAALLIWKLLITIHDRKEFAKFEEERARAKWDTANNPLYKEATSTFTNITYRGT

Binder	Kd [1]	koff [1]	kon [1]	fold enhanced binding over parent LM609 grafted antibody [2]	fold slower dissociation than LM609 grafted antibody [3]	fold enhanced affinity over LM609 grafted antibody [3]
LM609 grafted antibody variant A102 (Fab, V domains shown, Fab) VH: QVQLVESGGGVVQPGRSLRLSCAASGFTFSSYDMSWVRQAPGKGLEWVAKVSSGGGSTYYLDTVQGRFTISRDNSKNTLYLQMNSLRAEDTAVYYCARHNYGSFAAWGQGTTVTVSS VL: EIVLTQSPATLSLSPGERATLSCQASQSISNHLHWYQQRPGQAPRLLIRYRSQSISGIPARFSGSGSGTDFTLTISSLEPEDFAVYYCQQSGSWPHTFGGGTKVEIK	8.3 nM	0.00227 s⁻¹	275000 M⁻¹ s⁻¹	> 3 fold		
LM609 grafted antibody variant H97 (Fab, V domains shown, Fab) VH: QVQLVESGGGVVQPGRSLRLSCAASGFTFSSYDMSWVRQAPGKGLEWVAKVSSGGGSTYYLDTVQGRFTISRDNSKNTLYLQMNSLRAEDTAVYYCARHNHGSFAYWGQGTTVTVSS VL: EIVLTQSPATLSLSPGERATLSCQASQSISNHLHWYQQRPGQAPRLLIRYRSQSISGIPARFSGSGSGTDFTLTISSLEPEDFAVYYCQQSGSWPHTFGGGTKVEIK	13.8 nM	0.00303 s⁻¹	220000 M⁻¹ s⁻¹	> 3 fold	1.6 fold	
LM609 grafted antibody variant L96 (Fab, V domains shown, Fab) VH: QVQLVESGGGVVQPGRSLRLSCAASGFTFSSYDMSWVRQAPGKGLEWVAKVSSGGGSTYYLDTVQGRFTISRDNSKNTLYLQMNSLRAEDTAVYYCARHNYGSFAYWGQGTTVTVSS VL: EIVLTQSPATLSLSPGERATLSCQASQSISNHLHWYQQRPGQAPRLLIRYRSQSISGIPARFSGSGSGTDFTLTISSLEPEDFAVYYCQQSGSWPLTFGGGTKVEIK	9.2 nM	0.00223 s⁻¹	243000 M⁻¹ s⁻¹	> 3 fold		
LM609 grafted antibody variant N92 (Fab, V domains shown, Fab; also called LM609 grafted antibody having Asn at position 92 of light chain CDR3) VH: QVQLVESGGGVVQPGRSLRLSCAASGFTFSSYDMSWVRQAPGKGLEWVAKVSSGGGSTYYLDTVQGRFTISRDNSKNTLYLQMNSLRAEDTAVYYCARHNYGSFAYWGQGTTVTVSS VL: EIVLTQSPATLSLSPGERATLSCQASQSISNHLHWYQQRPGQAPRLLIRYRSQSISGIPARFSGSGSGTDFTLTISSLEPEDFAVYYCQQSNSWPHTFGGGTKVEIK	5.7 nM	0.00135 s⁻¹	236000 M⁻¹ s⁻¹	> 3 fold		
LM609 grafted antibody variant K52 (Fab, V domains shown, Fab) VH: QVQLVESGGGVVQPGRSLRLSCAASGFTFSSYDMSWVRQAPGKGLEWVAKVKSGGGSTYYLDTVQGRFTISRDNSKNTLYLQMNSLRAEDTAVYYCARHNYGSFAYWGQGTTVTVSS VL: EIVLTQSPATLSLSPGERATLSCQASQSISNHLHWYQQRPGQAPRLLIRYRSQSISGIPARFSGSGSGTDFTLTISSLEPEDFAVYYCQQSGSWPHTFGGGTKVEIK	12.2 nM	0.00218 s⁻¹	178000 M⁻¹ s⁻¹	> 3 fold		
LM609 grafted antibody variant G102 (Fab, V domains shown, Fab; also called clone G102) VH: QVQLVESGGGVVQPGRSLRLSCAASGFTFSSYDMSWVRQAPGKGLEWVAKVSSGGGSTYYLDTVQGRFTISRDNSKNTLYLQMNSLRAEDTAVYYCARHNYGSFAGWGQGTTVTVSS VL: EIVLTQSPATLSLSPGERATLSCQASQSISNHLHWYQQRPGQAPRLLIRYRSQSISGIPARFSGSGSGTDFTLTISSLEPEDFAVYYCQQSGSWPHTFGGGTKVEIK	12.5 nM	0.00201 s⁻¹	161000 M⁻¹ s⁻¹	> 3 fold		2.2 fold
LM609 grafted antibody variant T27 (Fab, V domains shown, Fab) VH: QVQLVESGGGVVQPGRSLRLSCAASGTTFSSYDMSWVRQAPGKGLEWVAKVSSGGGSTYYLDTVQGRFTISRDNSKNTLYLQMNSLRAEDTAVYYCARHNYGSFAYWGQGTTVTVSS VL: EIVLTQSPATLSLSPGERATLSCQASQSISNHLHWYQQRPGQAPRLLIRYRSQSISGIPARFSGSGSGTDFTLTISSLEPEDFAVYYCQQSGSWPHTFGGGTKVEIK				> 3 fold		
LM609 grafted antibody variant S51 (Fab, V domains shown, Fab) VH: QVQLVESGGGVVQPGRSLRLSCAASGFTFSSYDMSWVRQAPGKGLEWVAKVSSGGGSTYYLDTVQGRFTISRDNSKNTLYLQMNSLRAEDTAVYYCARHNYGSFAYWGQGTTVTVSS VL: EIVLTQSPATLSLSPGERATLSCQASQSISNHLHWYQQRPGQAPRLLIRYSSQSISGIPARFSGSGSGTDFTLTISSLEPEDFAVYYCQQSGSWPHTFGGGTKVEIK				> 3 fold		
LM609 grafted antibody variant Q96 (Fab, V domains shown, Fab) VH: QVQLVESGGGVVQPGRSLRLSCAASGFTFSSYDMSWVRQAPGKGLEWVAKVSSGGGSTYYLDTVQGRFTISRDNSKNTLYLQMNSLRAEDTAVYYCARHNYGSFAYWGQGTTVTVSS VL: EIVLTQSPATLSLSPGERATLSCQASQSISNHLHWYQQRPGQAPRLLIRYRSQSISGIPARFSGSGSGTDFTLTISSLEPEDFAVYYCQQSGSWPQTFGGGTKVEIK				> 3 fold		
LM609 grafted antibody variant M102 (Fab, V domains shown, Fab) VH: QVQLVESGGGVVQPGRSLRLSCAASGFTFSSYDMSWVRQAPGKGLEWVAKVSSGGGSTYYLDTVQGRFTISRDNSKNTLYLQMNSLRAEDTAVYYCARHNYGSFAMWGQGTTVTVSS VL: EIVLTQSPATLSLSPGERATLSCQASQSISNHLHWYQQRPGQAPRLLIRYRSQSISGIPARFSGSGSGTDFTLTISSLEPEDFAVYYCQQSGSWPHTFGGGTKVEIK				> 3 fold		
LM609 grafted antibody variant D102 (Fab, V domains shown, Fab) VH: QVQLVESGGGVVQPGRSLRLSCAASGFTFSSYDMSWVRQAPGKGLEWVAKVSSGGGSTYYLDTVQGRFTISRDNSKNTLYLQMNSLRAEDTAVYYCARHNYGSFADWGQGTTVTVSS VL: EIVLTQSPATLSLSPGERATLSCQASQSISNHLHWYQQRPGQAPRLLIRYRSQSISGIPARFSGSGSGTDFTLTISSLEPEDFAVYYCQQSGSWPHTFGGGTKVEIK	3.5 nM	0.00097 s⁻¹	276000 M⁻¹ s⁻¹	> 3 fold		
LM609 grafted antibody variant T92 (Fab, V domains shown, Fab) VH: QVQLVESGGGVVQPGRSLRLSCAASGFTFSSYDMSWVRQAPGKGLEWVAKVSSGGGSTYYLDTVQGRFTISRDNSKNTLYLQMNSLRAEDTAVYYCARHNYGSFAYWGQGTTVTVSS VL: EIVLTQSPATLSLSPGERATLSCQASQSISNHLHWYQQRPGQAPRLLIRYRSQSISGIPARFSGSGSGTDFTLTISSLEPEDFAVYYCQQSTSWPHTFGGGTKVEIK				> 3 fold		
LM609 grafted antibody variant T102 (Fab, V domains shown, Fab) VH: QVQLVESGGGVVQPGRSLRLSCAASGFTFSSYDMSWVRQAPGKGLEWVAKVSSGGGSTYYLDTVQGRFTISRDNSKNTLYLQMNSLRAEDTAVYYCARHNYGSFATWGQGTTVTVSS VL: EIVLTQSPATLSLSPGERATLSCQASQSISNHLHWYQQRPGQAPRLLIRYRSQSISGIPARFSGSGSGTDFTLTISSLEPEDFAVYYCQQSGSWPHTFGGGTKVEIK	5.8 nM	0.00143 s⁻¹	246000 M⁻¹ s⁻¹	> 3 fold		
LM609 grafted antibody variant E102 (Fab, V domains shown, Fab) VH: QVQLVESGGGVVQPGRSLRLSCAASGFTFSSYDMSWVRQAPGKGLEWVAKVSSGGGSTYYLDTVQGRFTISRDNSKNTLYLQMNSLRAEDTAVYYCARHNYGSFAEWGQGTTVTVSS VL: EIVLTQSPATLSLSPGERATLSCQASQSISNHLHWYQQRPGQAPRLLIRYRSQSISGIPARFSGSGSGTDFTLTISSLEPEDFAVYYCQQSGSWPHTFGGGTKVEIK				> 3 fold		
LM609 grafted antibody variant L30 (Fab, V domains shown, Fab) VH: QVQLVESGGGVVQPGRSLRLSCAASGFTFLSYDMSWVRQAPGKGLEWVAKVSSGGGSTYYLDTVQGRFTISRDNSKNTLYLQMNSLRAEDTAVYYCARHNYGSFAYWGQGTTVTVSS VL: EIVLTQSPATLSLSPGERATLSCQASQSISNHLHWYQQRPGQAPRLLIRYRSQSISGIPARFSGSGSGTDFTLTISSLEPEDFAVYYCQQSGSWPHTFGGGTKVEIK				> 3 fold		
LM609 grafted antibody variant F32 (Fab, V domains shown, Fab) VH: QVQLVESGGGVVQPGRSLRLSCAASGFTFSSYDMSWVRQAPGKGLEWVAKVSSGGGSTYYLDTVQGRFTISRDNSKNTLYLQMNSLRAEDTAVYYCARHNYGSFAYWGQGTTVTVSS VL: EIVLTQSPATLSLSPGERATLSCQASQSISNFLHWYQQRPGQAPRLLIRYRSQSISGIPARFSGSGSGTDFTLTISSLEPEDFAVYYCQQSGSWPHTFGGGTKVEIK	2.5 nM	0.00042 s⁻¹	167000 M⁻¹ s⁻¹	> 3 fold	11.8 fold	
LM609 grafted antibody variant W29 (Fab, V domains shown, Fab) VH: QVQLVESGGGVVQPGRSLRLSCAASGFTWSSYDMSWVRQAPGKGLEWVAKVSSGGGSTYYLDTVQGRFTISRDNSKNTLYLQMNSLRAEDTAVYYCARHNYGSFAYWGQGTTVTVSS VL: EIVLTQSPATLSLSPGERATLSCQASQSISNHLHWYQQRPGQAPRLLIRYRSQSISGIPARFSGSGSGTDFTLTISSLEPEDFAVYYCQQSGSWPHTFGGGTKVEIK				> 3 fold		
LM609 grafted antibody variant P60 (Fab, V domains shown, Fab) VH: QVQLVESGGGVVQPGRSLRLSCAASGFTFSSYDMSWVRQAPGKGLEWVAKVSSGGGSTYYPDTVQGRFTISRDNSKNTLYLQMNSLRAEDTAVYYCARHNYGSFAYWGQGTTVTVSS VL: EIVLTQSPATLSLSPGERATLSCQASQSISNHLHWYQQRPGQAPRLLIRYRSQSISGIPARFSGSGSGTDFTLTISSLEPEDFAVYYCQQSGSWPHTFGGGTKVEIK	5.8 nM	0.00185 s⁻¹	318000 M⁻¹ s⁻¹	> 3 fold		
